Laboratory results from paper doi:10.1101/2025.01.15.633204.
pKd: −log10 of the molar value.

Molecular target: barnase (Bacillus amyloliquefaciens) (UniProt P00648)
Assay: BLI

Chain of UniProt P00648 (P00648 48-157): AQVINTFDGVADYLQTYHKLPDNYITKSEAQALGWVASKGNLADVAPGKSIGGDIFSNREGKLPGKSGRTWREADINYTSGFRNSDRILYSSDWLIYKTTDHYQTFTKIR

green fluorescent protein-Bs (GFP-Bs) fusion protein
pKd: > 10.00
